Data on two substances can be found in article PMC7170241.

Assay [1] addresses MamB_(BW-1) cytosolic C-terminal domain (CTD), residues 190-270 (Desulfamplus magnetovallimortis strain BW-1) (UniProt G8IQT4). As to the kind of experiment: SEC; preparative size-exclusion chromatography after Ni-NTA; HiLoad 26/60 Superdex 75; buffer E (20 mM Tris-HCl pH 8, 150 mM NaCl, 5 mM beta-mercaptoethanol). For orientation: SEC sorts molecules by how far they enter the pores of the column.

Assay [2] concerns the target MamM_(BW-1) cytosolic C-terminal domain (CTD), residues 213-293 (Desulfamplus magnetovallimortis strain BW-1). The assay is described as above.

The term stoichiometry N denotes a count of units in the complex or per binding partner. Take “MamB_(BW-1) cytosolic C-terminal domain (CTD), residues 190-270 (from UniProt G8IQT4 190-270) (domain or fragment)”: the stoichiometry N in assay [1] amounted to 2.
In turn, “MamM_(BW-1) cytosolic C-terminal domain (CTD), residues 213-293 (domain or fragment)” came in with a stoichiometry N in assay [2] of 2.
